What was measured:
dCas9-SunTag10×_v4 = experiment: cell-based or functional assay
[1] = target: mito-mCherry-4×GCN4pep (yeast); experiment: FRAP of scFv-GCN4-GFP bound to the mitochondrial scaffold in U2OS cells
[2] = target: mito-mCherry-4×GCN4pep with short linker (GGSGG; SEQ ID NO:3) (yeast); experiment: quantitative fluorescence microscopy on mitochondria, normalized to a sfGFP-mCherry fusion; antibodies per 4× array, short linker

Substance | activation of CDKN1B transcription (mRNA by qPCR, K562 cells) (dCas9-SunTag10×_v4) | activation of CXCR4 expression (CXCR4 protein level by FACS, K562 cells) (dCas9-SunTag10×_v4) | half-life of GFP fluorescence recovery (FRAP) [1] | average GFP:mCherry molar ratio [2]
scFv-GCN4-GFP-NLS-VP64 | 330% | 10 to 50 fold |  | 
scFv-GCN4-sfGFP-GB1 |  |  | 5 to 10 min | 3.4

— patent US20170219596A1
